The target of the assay is T1, ferroportin tagged at the C-terminus with green fluorescent protein (ECR293/Fpn-GFP cells).
T1 sequence (Q9NP59 whole entry, species assumed, looked up): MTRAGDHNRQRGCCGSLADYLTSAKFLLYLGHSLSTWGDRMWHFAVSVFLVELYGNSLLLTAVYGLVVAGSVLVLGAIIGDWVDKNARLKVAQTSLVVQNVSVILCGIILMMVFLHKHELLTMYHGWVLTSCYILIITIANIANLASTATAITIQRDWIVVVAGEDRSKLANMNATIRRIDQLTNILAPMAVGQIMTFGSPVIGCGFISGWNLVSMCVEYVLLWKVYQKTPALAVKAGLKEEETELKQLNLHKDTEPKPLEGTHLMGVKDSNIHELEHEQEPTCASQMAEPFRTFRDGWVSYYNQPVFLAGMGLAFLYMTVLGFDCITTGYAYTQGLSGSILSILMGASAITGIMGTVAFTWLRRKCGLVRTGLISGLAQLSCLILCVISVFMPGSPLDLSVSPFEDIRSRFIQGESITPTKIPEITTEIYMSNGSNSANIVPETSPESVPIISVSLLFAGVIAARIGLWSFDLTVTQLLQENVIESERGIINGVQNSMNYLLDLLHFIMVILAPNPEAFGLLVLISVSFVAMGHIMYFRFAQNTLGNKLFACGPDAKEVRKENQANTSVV
Briefly: cell-based or functional assay.

Numbered stars: 1 amine (or outer) side, 2 acyl side, 3 side chain; on linkers, the order of the positions; unused ones are H or OH. Square brackets hold non-standard residues; d marks the D form. Ends that are not written are not given here. Dap(AcBr) = N-(bromoacetyl)-L-2,3-diaminopropionic acid, O=C(CBr)NC[C@H](N[*:1])C(=O)[*:2]; Oic = O=C(O)[C@@H]1C[C@@H]2CCCC[C@@H]2N1; Dip = N[C@H](C(=O)O)C(c1ccccc1)c1ccccc1; β3hF = N[C@H](CC(=O)O)Cc1ccccc1; Chg = N[C@H](C(=O)O)C1CCCCC1; Phg = N[C@H](C(=O)O)c1ccccc1; Tle = CC(C)(C)[C@H](N)C(=O)O; β3hP = O=C(O)C[C@@H]1CCCN1; Dpa = not defined here Bounds are passed on as bounds.

D[Dpa]PICI[Dpa]-NH2 (reading uncertain) [Pr41] yielded an EC50 (nM); loss of fluorescence of Fpn-GFP cells, flow cytometry of 300 nM.
In the case of DTHFPICI[β3hF]P[β3hP]K-NH2 [Pr21] it was 500 nM.

B1: Pr10 (peptide)
peptide: D[Tle]H[Phg][Oic][Chg]C[Chg]F-NH2
modifications: N-terminus assumed
SMILES: CC(C)(C)[C@H](NC(=O)[C@@H](N)CC(=O)O)C(=O)N[C@@H](Cc1c[nH]cn1)C(=O)N[C@H](C(=O)N1[C@H](C(=O)N[C@H](C(=O)N[C@@H](CS)C(=O)N[C@H](C(=O)N[C@@H](Cc2ccccc2)C(N)=O)C2CCCCC2)C2CCCCC2)C[C@@H]2CCCC[C@@H]21)c1ccccc1
Turning to B1, the EC50 (nM); loss of fluorescence of Fpn-GFP cells, flow cytometry is above 3000 nM.
DTHFPICI[β3hF]P[β3hP]R-NH2 [Pr22] yielded an EC50 (nM); loss of fluorescence of Fpn-GFP cells, flow cytometry of 600 nM.
In the case of D[Dpa]PICIF-NH2 (reading uncertain) [Pr40] it was 70 nM.
In the case of D[Tle]HP[Oic][Chg]C[Chg]F-NH2 (also: retroinverted) [Pr11] it was above 3000 nM.

B2: Dap(AcBr) (peptide)
peptide: DTHFPI[Dap(AcBr)]IF-NH2
modifications: N-terminus assumed
SMILES: CC[C@H](C)[C@H](NC(=O)[C@H](CNC(=O)CBr)NC(=O)[C@@H](NC(=O)[C@@H]1CCCN1C(=O)[C@H](Cc1ccccc1)NC(=O)[C@H](Cc1c[nH]cn1)NC(=O)[C@@H](NC(=O)[C@@H](N)CC(=O)O)[C@@H](C)O)[C@@H](C)CC)C(=O)N[C@@H](Cc1ccccc1)C(N)=O
The molecule B2 had an EC50 (nM); loss of fluorescence of Fpn-GFP cells, flow cytometry above 10000 nM.
The figure for DTHFPICI[β3hF]PPR-NH2 [Pr20] is 200 nM.
In the case of DTH[Dip]PCCC[Dip]-NH2 (also: any disulfide between the Cys residues not recoverable) [Pr46] it was 80 nM; in that of DTHFPICI[β3hF]PPK-NH2 [Pr19], 700 nM.

Values taken from patent publication US20120040894A1.
